Measurements as given in publication PMC11907993, “Rare but specific: 5-bp composite motifs define SMAD binding in BMP signaling”.

Columns and labels:
[1] = target: T1, SMAD3 MH1 (human (Fig. 1/3 legends), UniProt P84022 10-136); assay: EMSA; EMSA: 7.5 nM Cy5-dsDNA, 200 mM Tris pH 7.2, 100 mM NaCl, 2 mM TCEP, 15 min on ice; 6% PAGE in TG buffer, 4 °C; Hill fit, n = 2; details: protein: recombinant; tags: N-terminal His tag cleaved (TEV or 3C); chain copies: 2; label: 5'-Cy5
[2] = target: SMAD4 MH1 (human (Fig. 1 legend), UniProt Q13485 18-142); assay: as above; details: protein: recombinant; tags: N-terminal His tag cleaved (TEV or 3C); label: 5'-Cy5
Sequence of SMAD4 MH1 (Q13485 18-142): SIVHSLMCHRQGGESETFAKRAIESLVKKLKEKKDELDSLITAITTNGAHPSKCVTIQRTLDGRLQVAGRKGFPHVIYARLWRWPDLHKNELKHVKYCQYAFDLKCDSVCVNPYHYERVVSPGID

[3] = target: T1, SMAD3 MH1; assay: EMSA; Hill h = 1.80 ± 0.23; double binding; EMSA: 7.5 nM Cy5-dsDNA, 200 mM Tris pH 7.2, 100 mM NaCl, 2 mM TCEP, 15 min on ice; 6% PAGE in TG buffer, 4 °C; Hill fit, n = 2; details: protein: recombinant; tags: N-terminal His tag cleaved (TEV or 3C); chain copies: 2; label: 5'-Cy5
[4] = target: T1, SMAD3 MH1; assay: EMSA; similar to sense SBE; EMSA: 7.5 nM Cy5-dsDNA, 200 mM Tris pH 7.2, 100 mM NaCl, 2 mM TCEP, 15 min on ice; 6% PAGE in TG buffer, 4 °C; Hill fit, n = 2; details: protein: recombinant; tags: N-terminal His tag cleaved (TEV or 3C); chain copies: 2; label: 5'-Cy5

T1 sequence (P84022 10-136): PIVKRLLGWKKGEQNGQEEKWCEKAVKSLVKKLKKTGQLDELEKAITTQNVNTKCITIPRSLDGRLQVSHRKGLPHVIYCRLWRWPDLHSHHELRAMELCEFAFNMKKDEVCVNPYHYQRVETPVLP

B1: pGC-SBE/SBE heterocomposite, sense SBE (dsDNA)
DNA 1: ATATGGCGCCAACTTGTCTGATATA
DNA 2: TATATCAGACAAGTTGGCGCCATAT
- binding result [1]: binds

B2: SBE+ (dsDNA)
DNA 1: ATATGTCTGATAT
DNA 2: ATATCAGACATAT
- Kd [1]: 366 ± 29 nM
- Kd [2]: 919 ± 70 nM

B3: pGC-SBE+ (dsDNA)
DNA 1: ATATGGCGCCATAT
DNA 2: ATATGGCGCCATAT
- Kd [2]: 886 ± 274 nM
- Kd [3]: 293 ± 32 nM

B4: npGC-SBE+ (dsDNA)
DNA 1: ATATGGCTCCATAT
DNA 2: ATATGGAGCCATAT
- Kd [1]: 660 ± 280 nM
- Kd [2]: 1340 ± 744 nM

B5: pGC-SBE/SBE heterocomposite, inverted SBE (dsDNA)
DNA 1: ATATAGTCTGAACTTGGCGCCATAT
DNA 2: ATATGGCGCCAAGTTCAGACTATAT
- binding result [4]: binds
